Laboratory results published in US20100048462A1, “TRUNCATED PTH PEPTIDES WITH A CYCLIC CONFORMATION” (Zealand Pharma A/S, priority 2006, published 2010).
Like-named read-outs stand apart in the source and are kept apart here. Square brackets hold non-standard residues; d marks the D form. hArg = N=C(N)NCCCC[C@H](N)C(=O)O; Ac5c = NC1(C(=O)O)CCCC1; Aib = CC(C)(N)C(=O)O

Columns and labels:
Assay in all cases: cell-based or functional assay
[1] = molecular target: PTH receptor 1 on MC3T3-E1 cells (murine) (UniProt P41593)
Chain of PTH receptor 1 on MC3T3-E1 cells (murine) (P41593 27-591): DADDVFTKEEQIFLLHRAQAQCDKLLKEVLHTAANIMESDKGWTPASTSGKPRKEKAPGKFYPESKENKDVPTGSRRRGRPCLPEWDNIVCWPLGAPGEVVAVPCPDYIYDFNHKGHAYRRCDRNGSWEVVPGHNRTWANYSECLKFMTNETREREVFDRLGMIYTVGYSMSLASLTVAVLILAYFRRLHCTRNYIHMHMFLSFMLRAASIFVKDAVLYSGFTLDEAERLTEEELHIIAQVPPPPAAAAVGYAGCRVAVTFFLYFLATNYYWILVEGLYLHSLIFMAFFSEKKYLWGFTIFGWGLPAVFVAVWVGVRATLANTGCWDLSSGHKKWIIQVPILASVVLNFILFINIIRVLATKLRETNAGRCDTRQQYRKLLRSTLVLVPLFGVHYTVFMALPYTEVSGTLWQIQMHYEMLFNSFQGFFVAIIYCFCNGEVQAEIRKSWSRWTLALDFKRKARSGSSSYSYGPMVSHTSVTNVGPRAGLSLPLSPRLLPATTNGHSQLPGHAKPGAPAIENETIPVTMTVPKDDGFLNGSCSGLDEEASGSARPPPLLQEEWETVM

Saos-2 PTH1R = Saos-2 PTH1R (UniProt Q03431)
Chain of Saos-2 PTH1R (Q03431 27-593 limits assumed): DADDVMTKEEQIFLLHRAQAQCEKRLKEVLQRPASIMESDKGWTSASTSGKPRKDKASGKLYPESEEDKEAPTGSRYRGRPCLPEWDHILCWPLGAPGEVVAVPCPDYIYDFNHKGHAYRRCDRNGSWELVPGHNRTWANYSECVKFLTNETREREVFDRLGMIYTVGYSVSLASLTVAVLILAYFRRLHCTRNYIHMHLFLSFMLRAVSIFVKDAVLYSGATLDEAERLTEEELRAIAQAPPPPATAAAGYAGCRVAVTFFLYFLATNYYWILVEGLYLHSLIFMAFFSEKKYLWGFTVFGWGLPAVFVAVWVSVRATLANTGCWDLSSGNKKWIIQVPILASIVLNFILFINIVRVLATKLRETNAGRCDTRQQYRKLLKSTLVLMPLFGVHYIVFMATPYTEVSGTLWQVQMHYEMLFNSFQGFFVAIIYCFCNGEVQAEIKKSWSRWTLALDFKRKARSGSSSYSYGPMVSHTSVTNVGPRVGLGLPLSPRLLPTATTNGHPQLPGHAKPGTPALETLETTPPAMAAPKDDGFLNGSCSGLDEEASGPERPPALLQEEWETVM

CYP2D6 = CYP2D6 (Homo sapiens, UniProt P10635)
Chain of CYP2D6 (P10635 whole entry): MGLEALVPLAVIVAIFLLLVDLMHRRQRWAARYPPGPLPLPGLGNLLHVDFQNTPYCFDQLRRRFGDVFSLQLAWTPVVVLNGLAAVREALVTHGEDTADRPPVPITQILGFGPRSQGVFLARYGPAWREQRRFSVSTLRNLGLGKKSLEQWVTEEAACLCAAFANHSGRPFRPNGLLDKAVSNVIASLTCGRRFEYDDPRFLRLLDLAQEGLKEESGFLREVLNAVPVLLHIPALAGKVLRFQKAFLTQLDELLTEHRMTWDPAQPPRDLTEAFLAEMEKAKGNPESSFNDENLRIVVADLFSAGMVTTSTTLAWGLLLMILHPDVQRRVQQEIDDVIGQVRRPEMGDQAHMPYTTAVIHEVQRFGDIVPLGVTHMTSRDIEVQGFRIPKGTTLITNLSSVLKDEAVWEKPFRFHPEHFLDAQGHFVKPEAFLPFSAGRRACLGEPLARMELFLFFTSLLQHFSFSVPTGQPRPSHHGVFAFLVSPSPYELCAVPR

Question: With “(H-Ac5c-Val-Aib-Glu-Ile-Gln-Leu-Met-His-Gln-Har-Ala-Lys( )-Trp-Leu-Asp( )-NH2)2 (peptide)” as the molecule, how does the EC50, cAMP in an osteoblast-like cell line (MC3T3-E1) [1] read?
Answer: Its EC50, cAMP in an osteoblast-like cell line (MC3T3-E1) is 1 nM.

Question: What about the Emax, cAMP efficacy assay in MC3T3-E1 cells [1] of the same molecule?
Answer: The Emax, cAMP efficacy assay in MC3T3-E1 cells was 5 pmol/well.

Question: What about the agonist potency relative to SEQ ID NO: 30, cAMP in MC3T3-E1 cells (fold stronger) [1] of the same molecule?
Answer: Its agonist potency relative to SEQ ID NO: 30, cAMP in MC3T3-E1 cells (fold stronger) is 8.

Question: And the pEC50, cAMP efficacy assay in MC3T3-E1 cells [1]?
Answer: The pEC50, cAMP efficacy assay in MC3T3-E1 cells was 8.9 -log(M).

Question: What about the Emax, cAMP efficacy assay in Saos-2 cells (33T, trifluoroacetate salt) (relative to control (SEQ ID NO: 32)) (Saos-2 PTH1R) of the same molecule?
Answer: The Emax, cAMP efficacy assay in Saos-2 cells (33T, trifluoroacetate salt) (relative to control (SEQ ID NO: 32)) was 1.1.

Question: And the pEC50, cAMP efficacy assay in Saos-2 cells (33T, trifluoroacetate salt) (Saos-2 PTH1R)?
Answer: The pEC50, cAMP efficacy assay in Saos-2 cells (33T, trifluoroacetate salt) was 7.88 -log(M).

Question: What does the source list for “H-Ac5c-Val-Aib-Glu-Ile-Gln-Leu-Met-His-Gln-Har-Ala-Lys( )-Trp-Leu-Asp( )-NH2 (peptide)”?
Answer: Emax, cAMP efficacy assay in MC3T3-E1 cells [1]: 5 pmol/well; pEC50, cAMP efficacy assay in MC3T3-E1 cells [1]: 8 -log(M); Emax, cAMP efficacy assay in Saos-2 cells (30T, trifluoroacetate salt) (relative to control (SEQ ID NO: 32)) (Saos-2 PTH1R): 1.04; pEC50, cAMP efficacy assay in Saos-2 cells (30T, trifluoroacetate salt) (Saos-2 PTH1R): 7.09 -log(M); CYP2D6 activity (% of vehicle), dextrorphan formation rate in human liver microsomes, 10 µM peptide (CYP2D6): 83 % of vehicle

B1: H-Ac5c-Val-Aib-Glu-Ile-Gln-Leu-Met-His-Gln-Har-Ala-Lys-Trp-Leu-Asn-Asp-NH2 (peptide)
chain: H-[Ac5c]V[Aib]EIQLMHQ[hArg]AKWLND-NH2
SMILES: CC[C@H](C)[C@H](NC(=O)[C@H](CCC(=O)O)NC(=O)C(C)(C)NC(=O)[C@@H](NC(=O)C1(N)CCCC1)C(C)C)C(=O)N[C@@H](CCC(N)=O)C(=O)N[C@@H](CC(C)C)C(=O)N[C@@H](CCSC)C(=O)N[C@@H](Cc1c[nH]cn1)C(=O)N[C@@H](CCC(N)=O)C(=O)N[C@@H](CCCCNC(=N)N)C(=O)N[C@@H](C)C(=O)N[C@@H](CCCCN)C(=O)N[C@@H](Cc1c[nH]c2ccccc12)C(=O)N[C@@H](CC(C)C)C(=O)N[C@@H](CC(N)=O)C(=O)N[C@@H](CC(=O)O)C(N)=O
Question: For B1, which EC50, cAMP in an osteoblast-like cell line (MC3T3-E1) [1] is on record?
Answer: Its EC50, cAMP in an osteoblast-like cell line (MC3T3-E1) is 1 nM.

Question: And the Emax, cAMP efficacy assay in MC3T3-E1 cells [1]?
Answer: Its Emax, cAMP efficacy assay in MC3T3-E1 cells is 4.9 pmol/well.

Question: And the agonist potency relative to SEQ ID NO: 2, cAMP in MC3T3-E1 cells [1]?
Answer: The agonist potency relative to SEQ ID NO: 2, cAMP in MC3T3-E1 cells was 6 fold weaker.

Question: What about the pEC50, cAMP efficacy assay in MC3T3-E1 cells [1] of the same molecule?
Answer: The pEC50, cAMP efficacy assay in MC3T3-E1 cells was 9 -log(M).

Question: And the Emax, cAMP efficacy assay in MC3T3-E1 cells ([1]; record 2)?
Answer: Its Emax, cAMP efficacy assay in MC3T3-E1 cells is 5.7 pmol/well.

Question: What about the pEC50, cAMP efficacy assay in MC3T3-E1 cells ([1]; record 2) of the same molecule?
Answer: The pEC50, cAMP efficacy assay in MC3T3-E1 cells was 8.2 -log(M).

Question: And the Emax, cAMP efficacy assay in Saos-2 cells (2A, acetate salt) (relative to control (SEQ ID NO: 32)) (Saos-2 PTH1R)?
Answer: The Emax, cAMP efficacy assay in Saos-2 cells (2A, acetate salt) (relative to control (SEQ ID NO: 32)) was 0.99.

Question: And the Emax, cAMP efficacy assay in Saos-2 cells (2C, chloride salt) (relative to control (SEQ ID NO: 32)) (Saos-2 PTH1R)?
Answer: Its Emax, cAMP efficacy assay in Saos-2 cells (2C, chloride salt) (relative to control (SEQ ID NO: 32)) is 0.94.

Question: And the Emax, cAMP efficacy assay in Saos-2 cells (2T, trifluoroacetate salt) (relative to control (SEQ ID NO: 32)) (Saos-2 PTH1R)?
Answer: Its Emax, cAMP efficacy assay in Saos-2 cells (2T, trifluoroacetate salt) (relative to control (SEQ ID NO: 32)) is 0.7.

Question: What about the Emax, cAMP efficacy assay in Saos-2 cells (42T, trifluoroacetate salt) (relative to control (SEQ ID NO: 32)) (Saos-2 PTH1R) of the same molecule?
Answer: Its Emax, cAMP efficacy assay in Saos-2 cells (42T, trifluoroacetate salt) (relative to control (SEQ ID NO: 32)) is 1.03.

Question: And the pEC50, cAMP efficacy assay in Saos-2 cells (2A, acetate salt) (Saos-2 PTH1R)?
Answer: Its pEC50, cAMP efficacy assay in Saos-2 cells (2A, acetate salt) is 8.2 -log(M).

Question: What about the pEC50, cAMP efficacy assay in Saos-2 cells (2C, chloride salt) (Saos-2 PTH1R) of the same molecule?
Answer: The pEC50, cAMP efficacy assay in Saos-2 cells (2C, chloride salt) was 8.18 -log(M).

Question: And the pEC50, cAMP efficacy assay in Saos-2 cells (2T, trifluoroacetate salt) (Saos-2 PTH1R)?
Answer: Its pEC50, cAMP efficacy assay in Saos-2 cells (2T, trifluoroacetate salt) is 8.18 -log(M).

Question: And the pEC50, cAMP efficacy assay in Saos-2 cells (42T, trifluoroacetate salt) (Saos-2 PTH1R)?
Answer: The pEC50, cAMP efficacy assay in Saos-2 cells (42T, trifluoroacetate salt) was 7.68 -log(M).

Question: And the CYP2D6 activity (% of vehicle), dextrorphan formation rate in human liver microsomes, 10 µM peptide (CYP2D6)?
Answer: The CYP2D6 activity (% of vehicle), dextrorphan formation rate in human liver microsomes, 10 µM peptide was 29 % of vehicle.

Question: And the CYP2D6 activity (% of vehicle), dextrorphan formation rate in human liver microsomes, 10 µM peptide (CYP2D6; record 2)?
Answer: Its CYP2D6 activity (% of vehicle), dextrorphan formation rate in human liver microsomes, 10 µM peptide is 67 % of vehicle.

B2: H-Ac5c-Val-Aib-Glu-Ile-Gln-Leu-Met-His-Gln-Har-Ala-Lys-Trp-NH2 (peptide)
chain: H-[Ac5c]V[Aib]EIQLMHQ[hArg]AKW-NH2
SMILES: CC[C@H](C)[C@H](NC(=O)[C@H](CCC(=O)O)NC(=O)C(C)(C)NC(=O)[C@@H](NC(=O)C1(N)CCCC1)C(C)C)C(=O)N[C@@H](CCC(N)=O)C(=O)N[C@@H](CC(C)C)C(=O)N[C@@H](CCSC)C(=O)N[C@@H](Cc1c[nH]cn1)C(=O)N[C@@H](CCC(N)=O)C(=O)N[C@@H](CCCCNC(=N)N)C(=O)N[C@@H](C)C(=O)N[C@@H](CCCCN)C(=O)N[C@@H](Cc1c[nH]c2ccccc12)C(N)=O
Question: With B2 as the molecule, how does the Emax, cAMP efficacy assay in MC3T3-E1 cells [1] read?
Answer: The Emax, cAMP efficacy assay in MC3T3-E1 cells was 4.5 pmol/well.

Question: What about the pEC50, cAMP efficacy assay in MC3T3-E1 cells [1] of the same molecule?
Answer: Its pEC50, cAMP efficacy assay in MC3T3-E1 cells is 8.4 -log(M).

Question: What about the Emax, cAMP efficacy assay in Saos-2 cells (31T, trifluoroacetate salt) (relative to control (SEQ ID NO: 32)) (Saos-2 PTH1R) of the same molecule?
Answer: The Emax, cAMP efficacy assay in Saos-2 cells (31T, trifluoroacetate salt) (relative to control (SEQ ID NO: 32)) was 1.07.

Question: And the pEC50, cAMP efficacy assay in Saos-2 cells (31T, trifluoroacetate salt) (Saos-2 PTH1R)?
Answer: The pEC50, cAMP efficacy assay in Saos-2 cells (31T, trifluoroacetate salt) was 7.66 -log(M).

Question: And the CYP2D6 activity (% of vehicle), dextrorphan formation rate in human liver microsomes, 10 µM peptide (CYP2D6)?
Answer: The CYP2D6 activity (% of vehicle), dextrorphan formation rate in human liver microsomes, 10 µM peptide was 22 % of vehicle.
